From doi:10.1101/2022.07.31.502215

Biological target: SARS-CoV-2 main protease (Mpro) H172Y (SARS-CoV-2)

With “Dabcyl-KTSAVLQ↓SGFRKM-E(Edans)-NH2 FRET substrate (peptide)” the Michaelis constant Km, FRET-based cleavage assay (400 nM enzyme, substrate 10 to 320 μM, 20 mM HEPES, 120 mM NaCl, pH 7.0) was 803 μM.
